Target: T. spiralis E/S antigen

| Binder | detection limit [ng/mL] |
| --- | --- |
| Anti-[TRISP][B7] (antibody, V domains shown) VH: AVTLDESGGGLQTPRGGLSLVCKASGYTFSSHNMAWVRQAPGKGLEFVAGISNTGSFTLYGAAVKGRATISRDNGQSTVRLQLNNLRAEDTGTYYCAKHAGVGLYSIDAWGHGTEVIVSS VL: ALTQPSSVSANLGGTVKITCSGGTSDYGWYQQKAPGSAPVTLIYDNTNRPSDIPSRFSGSLSGSTNTLTITGVQAEDEAVYFCGSADRTYAGVFGAGTTLTVL | 6 |
| Anti-[TRISP][C9] (antibody, V domains shown) VH: AVTLDESGGGLQTPGGALSLVCKASGFSISSYSMQWVRQAPGKGLEWVAGIYYDGNTWYAPAVKGRATISRDNGQSTVRLRLNNLRAEDTATYFCAKYAGGYSIDAWGHGTEVIVSS VL: ALTQPSSVSANPGETVKITCSGSSGSYGWYQQKSPGSGPVTVIYYNDKRPSDIPSRFSGSASGSTATLTITGVQAEDEAVYFCGGYDSSTYVGIFGAGTTLTVL | 6 |

— patent publication EP3502685A1
